Measured values taken from patent publication US20070036789A1 (NATIONAL CANCER CENTER, published 2007).

T1: phage containing the peptide of SEQ ID NO: 32
T1 construct: The phage coat fusion is not described
T1 peptide: HHPHFKPVSNSR

T2: phage containing the peptide of SEQ ID NO: 33
T2 construct: The phage coat fusion is not described
T2 peptide: KSLSRHDHIHHH


Experiments:
[1] = target: T1, phage containing the peptide of SEQ ID …; assay: phage peptide library panned on the coated Fab, clones selected by EIA
Experimental: (§1) A 96-well plate (costar No. 3690) was coated with anti-HGF H61 Fab or anti-HGF H68 Fab dissolved in 25 μl of TBS solution at a concentration of 10 μg/ml per well. PHD peptide library (phage display of combinatorial peptide library) (new England Biolob.) was added to the well plate, and then, the well plate was kept for 2 hrs at room temperature. The well plate was washed with 0.5% (v/v) Tween 20 in PBS and eluted with 0.1 M HCl-glycine (pH 2.2). The washing steps were increased from 5 times in the first round to 10 times in the second round and 15 times in the subsequent rounds. Typically seven rounds of panning were carried out. After the last round of panning, the phage clones containing anti-HGF H61 Fab or anti-HGF H68 Fab were selected by EIA using anti-HGF H61 Fab or anti-HGF H68 Fab-coated ELISA plate and horseradish peroxidase-conjugated anti-M13 phage goat monoclonal antibody (Roche). The selected clones were subjected to nucleotide sequencing and the amino acid sequences were determined from the analyzed nucleotide sequences.
(§2) Nucleotide sequencing was performed according to the dye-labeled primer sequencing method (Chung et al., supra) using a sequencing primer of SEQ ID NO: 31. As a result, peptides encoding anti-HGF H61 and H68 Fabs deduced from the analyzed nucleotide sequences had the amino acid sequences of SEQ ID NOs: 32 and 33, respectively.

[2] = target: T3, c-Met (UniProt P08581 25-932, limits assumed); assay: SPR, c-Met on CM5 chip, Fab injected alone
T3 construct: also called HGF receptor
Experimental: To ascertain the fact that anti-HGF H68 Fab can inhibit the binding of HGF to c-Met in real time, c-Met was coupled to CM5 sensor chip through an amine coupling method. Thereafter, HGF alone was injected at a concentration of 50 nM, and premixed with anti-HGF H68 Fab of 5 different concentrations (50 nM, 250 nM, 500 nM, 1 μM and 1.5 μM) and soluble c-Met of 5 different concentrations (50 nM, 100 nM, 200 nM, 400 nM, 600 nM), respectively. Binding interaction was allowed to proceed in PBS buffer containing 0.005% surfactant P20 at a flow rate of 30 μl/min at 25° C. The surface was regenerated with 1 M NaCl/50 mM NaOH.
There was no binding of HGF in case when anti-HGF H68 Fab alone was injected.

[3] = target: T2, phage containing the peptide of SEQ ID …; assay: phage peptide library panned on the coated Fab, clones selected by EIA
Experimental: as §1, §2

T3 sequence (P08581 25-932 limits assumed): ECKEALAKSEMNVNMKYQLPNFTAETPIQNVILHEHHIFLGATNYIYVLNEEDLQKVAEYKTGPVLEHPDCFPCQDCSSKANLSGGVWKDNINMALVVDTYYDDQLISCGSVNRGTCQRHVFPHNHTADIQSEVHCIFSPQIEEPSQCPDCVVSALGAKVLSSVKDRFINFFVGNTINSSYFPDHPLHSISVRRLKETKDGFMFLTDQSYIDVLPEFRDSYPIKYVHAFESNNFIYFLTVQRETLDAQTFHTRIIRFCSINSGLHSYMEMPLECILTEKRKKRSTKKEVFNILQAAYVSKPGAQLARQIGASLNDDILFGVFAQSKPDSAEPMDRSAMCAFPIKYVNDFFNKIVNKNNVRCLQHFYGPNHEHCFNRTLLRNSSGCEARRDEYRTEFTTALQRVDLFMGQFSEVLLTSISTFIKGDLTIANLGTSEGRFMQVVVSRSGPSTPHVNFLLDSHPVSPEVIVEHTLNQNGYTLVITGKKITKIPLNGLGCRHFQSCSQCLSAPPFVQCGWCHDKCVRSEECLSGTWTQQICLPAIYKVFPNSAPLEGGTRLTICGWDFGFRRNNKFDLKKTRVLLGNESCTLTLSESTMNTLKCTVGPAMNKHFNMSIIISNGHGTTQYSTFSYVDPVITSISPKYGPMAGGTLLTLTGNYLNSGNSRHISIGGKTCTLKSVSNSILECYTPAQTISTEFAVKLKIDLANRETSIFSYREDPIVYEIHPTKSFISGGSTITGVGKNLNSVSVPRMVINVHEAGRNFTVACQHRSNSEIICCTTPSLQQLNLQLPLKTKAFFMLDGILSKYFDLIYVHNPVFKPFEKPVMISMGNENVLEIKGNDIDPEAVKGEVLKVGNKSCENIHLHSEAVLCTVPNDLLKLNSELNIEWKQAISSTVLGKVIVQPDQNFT

binding result [1]	binding result [2]	binding result [3]	Binder
binds			anti-HGF H61 Fab (Fab, V domains shown, Rabbit/human chimeric Fab: rabbit VH and VL joined to human CH1 and Ckappa from pComb3X; purified through its HA tag; also called clone 61; clone 61 Fab) VH: QEQLMESGGRLVNPGESLTLTCKASGFTFSSYYMSWVRQAPGKGLEWIGYIGTSSGTTYYANSVKGRFTISSDNAQNTVFLRMTSLTDSDTATYFCARGLGRINLWGPGTLVTVSS VL: ELVLTQTPSSMSAAVGGTVTINCQASQSVSNYLAWYQQKPGQPPKLLIYRASTLASGVPSRFSGSGSGTEFTLTISGMKAEDAATYYCQSGYYSAGATFGGGTNVEIKR
binds	no binding	binds	anti-HGF H68 Fab (Fab, V domains shown, Rabbit/human chimeric Fab: rabbit VH and VL joined to human CH1 and Ckappa from pComb3X; purified through its HA tag; also called clone 68; clone 68 antibody) VH: QQQLVESGGRLVNPGESLTLTCKASGFTFSTYYMSWVRQAPGKGLEWIGYIGTSSGTTYYANSVKGRFTISSDNAQNTVFLQMTSLTDSDTATYFCARGLGRINLWGPGTLVTVSS VL: ELDLTQTPSSVSAAVGGTVTINCQASQSVSNLLAWYQQKPGQPPKLLIYGASNLESGVPSRFRGSGSGTEFTLTISGMKAEDAATYYCQSGYYSAGATFGAGTNVEIKR
